Laboratory results published in US20100048413.

System: aspRS-OB wild type (anticodon-binding OB-fold domain of aspartyl-tRNA synthetase) (Pyrobaculum aerophilum)
Assay: pulldown
Details: phage binding to immobilised tRNA; RNase A elution; VCS-M13 without display 1.42

asp-tRNA (P. aerophilum, in vitro transcript)
binding signal (fold recovery over beads only): 190
